Reference: the nanobody polyreactivity screen of Harvey et al. (2022)

Experiment: yeast display, Sf9 membrane polyspecificity reagent, FACS + sequencing; frameworks hold sequencing errors
Summary of the method: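 Synthetic nanobody libraries on Saccharomyces cerevisiae BJ5465 were galactose-induced for 36–48 hours, stained 1 hour at 4 °C with 10% biotinylated, detergent-solubilized Sf9 membrane reagent and enriched on streptavidin microbeads. FACS then separated cells into low and high (top ~1%) gates by anti-HA (expression) and streptavidin (reagent binding) fluorescence. Genes were colony-PCR amplified, MiSeq 2 × 250 sequenced and CDR-length filtered. A clone's polyreactivity label is that of its gate of origin.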
For “QVQLVESGVGLVQAGGSLRLSCAASGYIFYYYAMGWYRQAPGKESELVAAISSTVSTNYADSVKGRFTISRDNAKNTVYLQMNSLKPEDTAVYYCAAAQRVNHVWYDYWGQGTQVTVSS”, the “polyreactivity (PSR sort gate)” value was “low polyreactivity”. In the case of “QVQLVESGVGLVQAGGSLRLSCAASGYTFLYYAMGWYRQAPGTERELVAAISSGGRTYYADSVKGRFTISRDNAKNTVYLQMNSLKPEVTAVYYCNTGALIHNGYYGLDYWGQGTQVTVSS”, the “polyreactivity (PSR sort gate)” value is reported as “high polyreactivity”. In the case of “QVQLVESGVGLVQAGGSLRLSCAASVYTFFIYAMRWYRHAHGQERELVARIRATGDSTYYADSVKGRFTISRDNAKNTVYLQMNSLKPDDTAVYYFNVRPVYSYREYGYWGQGTQVTVSS”, the “polyreactivity (PSR sort gate)” value is reported as “high polyreactivity”. With “QVQLVESGVGLVQAGGSLRLSCAATGSIFRVNAMGWYRQAPGKERELVAGIRWRGGSTYYADSVKGRFTISRDNAKNTVYLQMNSLKPEDTAVYYCAARSYPFIATYGYWGQGTQVTVSS” the “polyreactivity (PSR sort gate)” value was “high polyreactivity”. For “QVQLVESGVGLVQAGGSLRLSCAAYGSTFVSNAMGWDRQAPGKERELVAAISTSGGSTYYADSVKGRFTISRDNAKNTVYLQMNSLKPEDTAVYYCAKLLARGFRIWQDYDYWGQGTQVTVSS”, the “polyreactivity (PSR sort gate)” value was “low polyreactivity”. With “QVQLVESGVGLVQAGGSLRLSCADSGLILSKYAKVWYRPAPGKEREFVAAITQTGSRTYYADSVKGRFTSSRDNAKNTVYLQMNSLKPEDTAVYYCNAVNYRSSRDSGYWGQGTQVTVSS” the “polyreactivity (PSR sort gate)” value was “high polyreactivity”. In the case of “QVQLVESGVGLVQAGGSLRLSCASSGYTFFYYSMGWYRQAPGKEREFVAAISTGTGSTYYADSVKGRFTISRDNAKNTVYLQMNSLKPEDTAVYYCAADGTLYYFGLEYDYWGQGTQVTVSS”, the “polyreactivity (PSR sort gate)” value is reported as “low polyreactivity”. In the case of “QVQLVESGVGLVQAGGSLRLSCGASGSIFVANVMGWYRQAPGKEREFVATISWNGGNTYYADSVKGRFTISRDNAKNTVYLQMNSLKPEDTAVYYCAAEPLTPSRDRVPYEYYYWGQGTQVTVSS”, the “polyreactivity (PSR sort gate)” value is reported as “high polyreactivity”. In the case of “QVQLVESGVGLVQAGGSLRLSCSASGSTFFGNGMGWYRQAPGKERELVAAISGGGSTHYADSVKGRFTISRDNAKNTVYLQMNSLKPEDPAVYYCSPSRDTVGRGPIQRDYWGQGTQVTVSS”, the “polyreactivity (PSR sort gate)” value is reported as “low polyreactivity”. In the case of “QVQLVESGVGLVQAGGSLRLSSAASGFTFIYYPMGWYRPAPGKERELVAAITSGGNTYYADSVKGRFTISRDNAKNSVYFQMNSLKPEDTAVYYCNKVPHREWVGGYDYWGQGTQVTVSS”, the “polyreactivity (PSR sort gate)” value is reported as “low polyreactivity”. In the case of “QVQLVESGVGLVQAGGSLRLSSAASGSIFAHNAMGWYRQEPGKEREFVATITYSGGTTYYADSVKGRFTISRDNAKNTVYLQMNILKPEDTAVYYCAKLRYPYLFWDDSEYWGQGTQVTVSS”, the “polyreactivity (PSR sort gate)” value is reported as “low polyreactivity”. With “QVQLVESGVGLVQAGGSLRLSWAATGSIFPYNDLGWYRKAPGKERELVAAISDSAGTTYYADSVKGRFTISRDNAKNTVDLQMNSLKPEDTAGYYCAADSWDSQVVSYEYWGQGTQVTLSS” the “polyreactivity (PSR sort gate)” value was “low polyreactivity”. With “QVQLVESGVGLVQAGGSLRLTCAASGITFLYNAMGSYRQAPGKERELVAVITRGGITNYADSVKGRFTISRDNAKNTDSLQMYRLNPEDTAVYDWAAYRGIYSRYDYWGQGTQVNVSS” the “polyreactivity (PSR sort gate)” value was “high polyreactivity”. With “QVQLVESGVGLVQAGGSLSLSCAASGPYYFMGWYRQAPGKESELVAAITRRGGRTYYADSVKGRFTISRDNANITVYLQMNSLKPEDTAVYYCAAKYRYHVSGYDYWGQGTQVTVSS” the “polyreactivity (PSR sort gate)” value was “high polyreactivity”. For “QVQLVESGVGLVQAGVRLRLSCAASGITLRRYAMGWYRQAPGKEREFVAAISRTGGNTYYADSVKGRFTISRDNAKNTVYLQMNSLKPEDTAVYYCAREVYRHYAPVGYDYWGQGTQVTVSS”, the “polyreactivity (PSR sort gate)” value was “high polyreactivity”. In the case of “QVQLVESGVGLVQAGVSLRLSCAASGIILTEYAMGCYRQAHGKERELVAAINRVGSTNYADSVKGRFTISRDNAKNTVYLQMNSLNPEDTAVYYCAAGTYYNDYDYWGQGTQVTVSS”, the “polyreactivity (PSR sort gate)” value is reported as “low polyreactivity”. With “QVQLVESGVGLVQAGVSLRLSSAASGSIFRLYTMGWYRQATGKERELVAAITWSGGRTYYADSVKGRFTISRDNAKNTVYLQMNSLKPEDTAVYYCAADNWYSTYDYWGRGTQVTVSS” the “polyreactivity (PSR sort gate)” value was “high polyreactivity”. In the case of “QVQLVESGVGLVQARGSLRLSCAASGIIFKKTVMGWYRPSPGKERECVAPITSRDGSTYYADSVKGRFTISRDNANNTVYLQMNSLKPEDTAVYYCAAEVYDGYEYEVWYDYCGQGTQVTVSS”, the “polyreactivity (PSR sort gate)” value is reported as “high polyreactivity”. In the case of “QVQLVESGVGLVQARGSLRLSSAASGRIFDRNAMGWYRQSPGNERELVAAIDDSGGDTSYADSVKGRFTISRDNAKNTVYLQMTSLKPEDTAVYYCNAVKQRSSIFDYWGQGTQLTVSS”, the “polyreactivity (PSR sort gate)” value is reported as “low polyreactivity”. For “QVQLVESGVGLVQARRSLRLSCAASGSSKLILWDGIDRRLGKKGSWLPLFVLVVLRNYADSVKGRFTISRDNAKNTVYLQMNILKPDDTEVYYCAATAIGSGGWGDYWGLGTQVTVSS”, the “polyreactivity (PSR sort gate)” value was “low polyreactivity”. In the case of “QVQLVESGVGLVQPGGILRLSCAASGIIFTQYAMGWNIQAPGKESELVAAMSGSGGSTYYADSVKGRFTISRDNAKNTVYLQMNSLKPEDTAVFYCAAGGVRGPGVESRMFYLGQGTQVTVSS”, the “polyreactivity (PSR sort gate)” value is reported as “high polyreactivity”. For “QVQLVESGVGVVQAGGSLRLSCAASGRIFYGYAMGWYRQAPGKERELVAAISRGGTRTFYADSVKGRFTISRDNAKNTVYVQMNSLKPEDTAVYYCAARKRDFYSGYEYYYWGQGTQVTVSS”, the “polyreactivity (PSR sort gate)” value was “high polyreactivity”. In the case of “QVQLVESGVRLGQAGGSLRLSCAASGSIFLRYAMGWFRPAPGKERELVATISQRGSTYYADSVKGRFTISRDNAKNTVYLKKNSLKPEDTAVYYCNAVGRARTLGSNTYGYWGQGTQVTVSS”, the “polyreactivity (PSR sort gate)” value is reported as “high polyreactivity”. With “QVQLVESGVRLVQAGGRLRLSCAASGRIFDHNAMGWYRQAPGKERELVAAIDSGTSTNYADSVKGRFTISRDNAKNTVYLQMNSLKPEDTAVYYCARLLGPVRHKYDYDYWGQGTQVTVSS” the “polyreactivity (PSR sort gate)” value was “low polyreactivity”. With “QVQLVESGVRLVQAGGSLRLSCAASGRTLKYNAMGWYIQAPGKERELVAAISYSGSSTYYADSVRGRFTISRDNAKNTVYLQMNSLKPEDTAVYYFNTARPTAAYDYWGQGTQVTVSS” the “polyreactivity (PSR sort gate)” value was “low polyreactivity”. In the case of “QVQLVESGVRLVQAVGSHRLSCAASASIIDGNSMGWYRQAPGKERELGAVISSRGTRTYYADSVKGRFTISRDNAKKTVYLQMNILKPEDTAVYYCNTRTSDLNGSGDYWGLGTQVTVSS”, the “polyreactivity (PSR sort gate)” value is reported as “high polyreactivity”. For “QVQLVESGVVLVQAGGSLRLSCAASGTIFDLNAMGWYRQAPGKEREFVAAISSGGGTYYADSVKGRFTISRDNANNTVYLQMNSQKPEDTAVYYCKARARRYGGRYYYWGQGTQVTVSS”, the “polyreactivity (PSR sort gate)” value was “high polyreactivity”. In the case of “QVQLVESPGGLDQAGGSLRLSGAASGSTLYDNAMGWYRQAPGKERELVAAISRSGGRTYYADSVKGRFTISRDNAKNTVYLHMNSLIPEDTAVYYCNAVVNGPGNYVTYDSWGQGTQVTVSS”, the “polyreactivity (PSR sort gate)” value is reported as “high polyreactivity”. With “QVQLVESRGGIVQAGGSLRLSCAASGRIFNNYAMGCYRQAPGKERELDAAISGGGSTNYADSVKGRFTISRDNETNTVYLQMNSLKPEDTAVYYSATGYLKASRDLYETVPYDYWGQGTQVTVSS” the “polyreactivity (PSR sort gate)” value was “low polyreactivity”. In the case of “QVQLVESRGGIVQAGGSLRLSSAASGSTFAYNDLGWYRQAPGKERQLVADMRSGGNTNYADSVKGRFTISRDNAKNTVYLQMNSLKPEDTAVYYCATDGYRIDVYHPDYRYDYWGLGTQVTVSS”, the “polyreactivity (PSR sort gate)” value is reported as “low polyreactivity”. For “QVQLVESRGGLLQAGGSLRLSCAASGSIFKYYSMGSYRQAPGKERELVAAIRWSGGTTYYADSVKGRFTISRDNAKNTVYLQMNSLKPEDTAVYYCAAEYFNQNTREGYDYWGQGSQVTVSS”, the “polyreactivity (PSR sort gate)” value was “low polyreactivity”.
